Results taken from PMC9300723.

Molecular target: F5M-σ^A1.1^(S2C), fluorescein-labelled σ1.1 domain of Pae σ^A (Pseudomonas aeruginosa)
Test: fluorescence polarisation; 2 nM fluorescein-labelled σ1.1 domain, Pae RNAP core enzyme 0-4096 nM; 10 mM Tris-HCl pH 7.7, 100 mM NaCl, 1 mM DTT, 1% glycerol, 0.025% Tween-20; 10 min at room temperature

Pae RNAP core enzyme (from UniProt O52760 1-333; Q51561 1-1357; Q9HWC9 2-1399; B7V5M8 1-88) (complex)
Kd: 220 nM
